According to PMC2267215:
Values belong to the substance of their own block, whether it stands above or below them.

Key:
[1] = target: NCAM 1FN3–2FN3 Y672E mutant (human); assay: SEC; size-exclusion chromatography of the purified NCAM 1FN3–2FN3 proteins; data not shown
[2] = target: NCAM 1FN3–2FN3 R690E mutant (human); assay: as above
[3] = target: NCAM 1FN3–2FN3 M610R mutant (human); assay: as above
[4] = target: NCAM 1FN3–2FN3 (wild-type FN3 domain tandem of human neural cell adhesion molecule) (human); assay: SPR; Biacore 3000, 25 °C; NCAM 1FN3–2FN3 proteins amine-coupled to a CM4 chip (1800 RU wild type, 1900 RU M610R); analytes FGFR1 D1–D3 or D2–D3 at 1–100 μM; HBS-EP running buffer, analytes in PBS; KD estimated from plateau values at equilibrium, very approximate
[5] = target: FGFR1 D2-D3 (Homo sapiens) (UniProt P11362); conditions: cited from earlier work

- stoichiometry N [1]: 2
Substance: NCAM 1FN3–2FN3 Y672E mutant (domain or fragment)

- stoichiometry N [2]: 2
Substance: NCAM 1FN3–2FN3 R690E mutant (domain or fragment)

The next lines start with the substance.

Substance: NCAM 1FN3–2FN3 M610R mutant (domain or fragment)
- stoichiometry N [3]: 2

Substance: FGFR1 D2–D3 (soluble ectodomain construct of fibroblast growth factor receptor 1, residues 151–364) (from UniProt P11362 151-364) (domain or fragment)
- Kd [4]: > 100 µM

Substance: NCAM 1FN3-2FN3 (from UniProt P13591)
- Kd [5]: 10 µM
